Assay results published in patent US11833164B2, “Methods of treating Fabry disease in patients having a mutation in the GLA gene” (Amicus Therapeutics, Inc., priority 2019, dated 2023).
Changes are numbered by the printed parent chain. Names and notes keep the numbering of the source.

B1: Y184S (protein)
chain: MQLRNPELHLGCALALRFLALVSWDIPGARALDNGLARTPTMGWLHWERFMCNLDCQEEPDSCISEKLFMEMAELMVSEGWKDAGYEYLCIDDCWMAPQRDSEGRLQADPQRFPHGIRQLANYVHSKGLKLGIYADVGNKTCAGFPGSFGYYDIDAQTFADWGVDLLKFDGCYCDSLENLADGSKHMSLALNRTGRSIVYSCEWPLYMWPFQKPNYTEIRQYCNHWRNFADIDDSWKSIKSILDWTSFNQERIVDVAGPGGWNDPDMLVIGNFGLSWNQQVTQMALWAIMAAPLFMSNDLRHISPQAKALLQDKDVIAINQDPLGKQGYQLRQGDNFEVWERPLSGLAWAVAMINRQEIGGPRSYTIAVASLGKGVACNPACFITQLLPVKRKLGFYEWTSRLRSHINPTGTVLLQLENTMQMSLKDLL
B2: K185T (protein)
chain: B1 chain with S184Y, K185T
B3: H186Y (protein)
chain: B1 chain with S184Y, H186Y
B4: L189V (protein)
chain: B1 chain with S184Y, L189V
B5: M187L (protein)
chain: B1 chain with S184Y, M187L
B6: A190G (protein)
chain: B1 chain with S184Y, A190G
B7: H186Q (protein)
chain: B1 chain with S184Y, H186Q
B8: L189S (protein)
chain: B1 chain with S184Y, L189S
B9: S188P (protein)
chain: B1 chain with S184Y, S188P
B10: S188T (protein)
chain: B1 chain with S184Y, S188T
B11: H186L (protein)
chain: B1 chain with S184Y, H186L
B12: S188F (protein)
chain: B1 chain with S184Y, S188F
B13: K185M (protein)
chain: B1 chain with S184Y, K185M
B14: A190D (protein)
chain: B1 chain with S184Y, A190D
B15: K185N (protein)
chain: B1 chain with S184Y, K185N
B16: K185Q (protein)
chain: B1 chain with S184Y, K185Q
B17: H186N (protein)
chain: B1 chain with S184Y, H186N
B18: S188A (protein)
chain: B1 chain with S184Y, S188A
B19: S188C (protein)
chain: B1 chain with S184Y, S188C
B20: H186D (protein)
chain: B1 chain with S184Y, H186D
B21: S188Y (protein)
chain: B1 chain with S184Y, S188Y

What follows are molecules tested on mutant form of α-Gal A expressed in HEK-293 cells (assay: HEK assay (GLP HEK / Migalastat Amenability Assay): α-Gal A activity in lysates of transiently transfected HEK-293 cells incubated with or without 10 μM migalastat). Settings: 10 μM migalastat versus baseline.
Assay type: cell-based, human
Procedure, shortened: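 HEK-293 cells transiently transfected with mutant α-Gal A and incubated with or without 10 μM migalastat; lysate activity given as nmol free 4-MU released per mg protein per hour. Values are mean±SEM.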

In order of rising “Absolute increase (% WT)” value:
1. B9  3.2 % WT
2. B20  18.2 % WT
3. B19  18.5 % WT
4. B2  19.0 % WT
5. B8  20.1 % WT
6. B4  20.2 % WT
7. B15  22.5 % WT
8. B10  24.0 % WT
9. B1  25.2 % WT
10. B18  25.7 % WT
11. B17  26.8 % WT
12. B14  26.9 % WT
13. B11  27.1 % WT
14. B6  27.4 % WT
15. B13  27.8 % WT
16. B7  28.5 % WT
17. B5  29.2 % WT
18. B16  30.9 % WT
19. B21  31.5 % WT
20. B12  36.4 % WT
21. B3  39.8 % WT

Same assay, conditions: 10 μM migalastat α-Gal A activity relative to baseline

In order of falling Relative increase:
1. B15  12.7
2. B5  6.7
3. B12  2.8
4. B1  2.7
5. B14  2.2
6. B21  2.0
7. B16  1.7
8. B10  1.5
9. B3  1.4
10. B6  1.4
11. B7  1.4
12. B17  1.4
13. B18  1.4
14. B19  1.4
15. B4  1.3
16. B8  1.3
17. B11  1.3
18. B13  1.3
19. B20  1.3
20. B2  1.2

Same assay, conditions: 10 μM migalastat, 5 days; percentage of baseline wild-type α-Gal A activity; mean ± SEM

In order of falling “10 μM migalastat α-Gal A activity (% WT)” value:
1. B3  123.6 ± 8.9 % WT
2. B7  105.3 ± 7 % WT
3. B13  102.9 ± 9 % WT
4. B4  100.1 ± 3.9 % WT
5. B6  97.9 ± 9.8 % WT
6. B11  97.5 ± 8.2 % WT
7. B8  92.7 ± 3.2 % WT
8. B2  92.6 ± 7.8 % WT
9. B17  90.3 ± 5.8 % WT
10. B18  86.3 ± 4.9 % WT
11. B20  78.2 ± 5.2 % WT
12. B16  74.5 ± 2.9 % WT
13. B10  69.5 ± 4.5 % WT
14. B19  68.6 ± 4.3 % WT
15. B21  64.1 ± 3.5 % WT
16. B12  57.1 ± 2.8 % WT
17. B14  49 ± 3.4 % WT
18. B1  40.6 ± 1.6 % WT
19. B5  34.5 ± 1.9 % WT
20. B15  24.4 ± 1.9 % WT
21. B9  3.2 ± 0.2 % WT

Same assay, conditions: absence of migalastat; mean activity below the limit of detection (<142 nmol/mg/hr)

For B9, the “Baseline α-Gal A activity (nmol/mg/hr)” value was “BLD (“BLD” indicates that the mean α-Gal A activity was below the limit of detection (<142 nmol/mg/hr))”.

Same assay, conditions: absence of migalastat; percentage of baseline wild-type α-Gal A activity; mean ± SEM

In order of falling “Baseline α-Gal A activity (% WT)” value:
1. B3  83.8 ± 4.5 % WT
2. B4  79.9 ± 5.1 % WT
3. B7  76.9 ± 4.3 % WT
4. B13  75.1 ± 4.6 % WT
5. B2  73.6 ± 4.4 % WT
6. B8  72.6 ± 3.1 % WT
7. B6  70.5 ± 7.3 % WT
8. B11  70.4 ± 3.4 % WT
9. B17  63.5 ± 3.1 % WT
10. B18  60.6 ± 4 % WT
11. B20  60 ± 4.1 % WT
12. B19  50.1 ± 3.7 % WT
13. B10  45.4 ± 2.5 % WT
14. B16  43.6 ± 2.2 % WT
15. B21  32.6 ± 2.6 % WT
16. B14  22.1 ± 1 % WT
17. B12  20.7 ± 2 % WT
18. B1  15.4 ± 1 % WT
19. B5  5.3 ± 0.2 % WT
20. B15  1.9 ± 0.1 % WT

Same assay, conditions: lysates of HEK-293 cells transfected with the mutant form, incubated 5 days in the absence of migalastat; mean ± SEM

In order of falling “Baseline α-Gal A activity” value:
1. B3  37644 ± 2421 nmol/mg/h
2. B13  33484 ± 2151 nmol/mg/h
3. B2  32028 ± 1167 nmol/mg/h
4. B11  31615 ± 1833 nmol/mg/h
5. B7  28845 ± 2365 nmol/mg/h
6. B17  28175 ± 1462 nmol/mg/h
7. B20  26924 ± 2047 nmol/mg/h
8. B4  25544 ± 1758 nmol/mg/h
9. B6  24299 ± 2173 nmol/mg/h
10. B8  23204 ± 1213 nmol/mg/h
11. B18  22589 ± 1833 nmol/mg/h
12. B19  18465 ± 1552 nmol/mg/h
13. B10  17041 ± 1389 nmol/mg/h
14. B16  14992 ± 947 nmol/mg/h
15. B21  12244 ± 1167 nmol/mg/h
16. B12  7746 ± 839 nmol/mg/h
17. B14  7141 ± 423 nmol/mg/h
18. B1  5213 ± 371 nmol/mg/h
19. B5  1924 ± 64 nmol/mg/h
20. B15  833 ± 38 nmol/mg/h

Same assay, conditions: lysates of HEK-293 cells transfected with the mutant form, incubated 5 days with 10 μM migalastat; mean ± SEM

In order of falling “10 μM migalastat α-Gal A activity” value:
1. B3  53613 ± 2581 nmol/mg/h
2. B13  44387 ± 2696 nmol/mg/h
3. B11  42145 ± 2540 nmol/mg/h
4. B2  39805 ± 2259 nmol/mg/h
5. B17  39509 ± 1885 nmol/mg/h
6. B7  38865 ± 2966 nmol/mg/h
7. B6  34126 ± 2992 nmol/mg/h
8. B20  34055 ± 1657 nmol/mg/h
9. B18  32197 ± 2515 nmol/mg/h
10. B4  32031 ± 1633 nmol/mg/h
11. B8  29510 ± 1181 nmol/mg/h
12. B10  26198 ± 2461 nmol/mg/h
13. B19  25569 ± 2083 nmol/mg/h
14. B16  25543 ± 1463 nmol/mg/h
15. B21  23849 ± 1725 nmol/mg/h
16. B12  21273 ± 1477 nmol/mg/h
17. B14  15887 ± 1308 nmol/mg/h
18. B1  13965 ± 799 nmol/mg/h
19. B5  12810 ± 929 nmol/mg/h
20. B15  10540 ± 618 nmol/mg/h
21. B9  1159 ± 61 nmol/mg/h
